The values that follow come from PMC12722041, “The low complexity linker of DNAJB6b is key to its anti-amyloid function” (QRB Discovery, 2025).

The series concerns the molecule itself. Briefly: dynamic light scattering; fresh linker sample after dialysis from 4 M urea into 20 mM sodium phosphate, 0.2 mM EDTA, pH 8.0; 25 μM stock.

B1: DNAJB6b (76–186), the 110-residue low complexity linker of DNAJB6b (domain or fragment, UniProt O75190-2 76-186, looked up)
chain: GGGGGSHFDSPFEFGFTFRNPDDVFREFFGGRDPFSFDFFEDPFEDFFGNRRGPRGSRSRGTGSFFSAFSGFPSFGSGFSSFDTGFTSFGSLGHGGLTSFSSTSFGGSGMG
notes: also called JB6 linker; linker peptide
As for B1, the binding result is listed as “binds”.
